Legend:
[1] = test system: A2B5+ oligodendrocytes; experiment: Differentiation of A2B5+ oligodendrocytes treated with Sp35-Fc (O4 staining); type: cell-based, rat; settings: increasing concentrations, versus control-Fc, FIG. 8
Protocol: Enriched populations of oligodendrocytes were grown from female Long Evans P2 rats as described by Conn, Meth. Neurosci. 2:1-4 (Academic Press; 1990) with modifications as follows. Briefly, the forebrain was dissected and placed in Hank's buffered salt solution (HBSS; Invitrogen). The tissue was cut into 1-mm fragments and was incubated at 37° C. for 15 min in 0.01% trypsin and 10 μg/ml DNase. Dissociated cells were plated on poly-L-lysine-coated T75 tissue culture flasks and were grown at 37° C. for 10 d in DMEM medium with 20% fetal calf serum (Invitrogen). Oligodendrocyte precursors (A2B5+) were collected by shaking the flask overnight at 200 rpm at 37° C., resulting in a 95% pure population. […] These differentiation states are readily apparent from changes in morphology: A2B5^+ cells are bipolar in shape, O4^+ premyelinating oligodendrocytes have longer and more branched processes and MBP^+ mature oligodendrocytes contain myelin sheet structures between processes.
A2B5^+ oligodendrocytes, prepared as described in Example 1, were treated with increasing concentrations of Sp35-Fc or control-Fc for 3 days (Sp35-Fc was prepared as described in Example 2). […] After 48 h (72 h for RNAi), cultures were stained with antibody to O4, and the number of total O4+ and mature O4+ oligodendrocytes was quantified. Samples were analyzed in duplicate. […]

[2] = test system: cuprizone-treated mice; experiment: Cuprizone demyelination model, stereotactic injection into corpus callosum; type: in vivo; settings: injected into corpus callosum at 2, 2.5 and 3 weeks of cuprizone feeding
From the text: Adult wild-type C57Bl/6 male mice were fed cuprizone (0.2% milled with ground mouse chow by weight) for 6 weeks to induce demyelination within the corpus callosum. Sp35-Fc was stereotactically injected into the demyelinating corpus callosum at 2, 2.5, and 3 weeks of cuprizone feeding. Control mice were stereotactically injected at the same intervals with sterilized media containing no Sp35-Fc. After 6 weeks of cuprizone feeding, the mice were returned to a normal diet for 2, 4 and 6 weeks (ground mouse chow only) to allow remyelination.
The cuprizone-treated mice were anesthetized with ketamine (80 mg/kg body weight) and xylazine (10 mg/kg body weight) and positioned in an immobilization apparatus designed for stereotactic surgery (David Kopf Instruments). The scalp was opened and the sterile compounds injected (1 μM in […] of HBSS) unilaterally into the acutely demyelinated corpus callosum of the wild-type recipient mice with a […] Hamilton syringe using stereotactic coordinates of 0.7 mm posterior and 0.3 mm lateral to bregma at a depth of 1.7 mm (Messier et al., Pharmacol. Biochem. Behav. 63(2): 313-18 (1999)). Additionally, control recipient mice were stereotactically injected with HBSS containing no compounds. The opening in the skull was filled with Gelfoam, and the area was swabbed with penicillin and streptomycin (Gibco) and the wound was sutured. […]

[3] = test system: mature oligodendrocytes; experiment: Survival and MBP expression of mature oligodendrocyte cultures treated with Sp35-Fc; type: cell-based, rat; settings: 10 μg/ml for 5 days
Protocol: Mature oligodendrocytes have a half-life in vitro of about 48 to 72 hours, with cells typically undergoing apoptosis after 72 hours. […] MBP expression was monitored as a marker for mature ologodendrocytes.

[4] = test system: RhoA-GTP; experiment: RhoA-GTP levels in oligodendrocyte lysates by western blotting; type: cell-based, rat; settings: FIG. 9A
From the text: A strong candidate signaling pathway that is implicated in the control of oligodendrocyte differentiation is the Rho family of GTPases. Rho GTPases regulate cellular morphology, and reduced RhoA-GTP amounts are required for oligodendrocyte differentiation. See Liang, X, et al., J. Neurosci. 24:7140-7149 (2004). To determine whether Sp35 signals through the RhoA pathway, RhoAGTP levels in cell lysates of oligodendrocytes treated with Sp35-Fc were compared with levels in the corresponding control via western blotting.

[5] = test system: Caspase-3; experiment: Caspase-3 activation in differentiated PC12 cells after NGF withdrawal (Caspase 3/7 Glo); type: cell-based
Protocol: (§1) PC12 cells (Neuroscreen) were differentiated in RPMI-1640 medium supplemented with 5% fetal bovine serum, 10% horse serum, 2 mM glutamine, 100 U/ml penicillin and […] streptomycin containing 200 ng/ml NGF for 7 days. For experiments, the culture media was replaced with NGF-free culture media containing Sp35-Fc, human IgG as a negative control (0.1-10 μM), or zVAD as a positive control (0.1 μM). 18 hours after NGF withdrawal, activated Caspase-3 was quantified using the Caspase 3/7 Glo kit (Promega) according to the manufacturer's instructions. 42 hours after NGF withdrawal, apoptotic cell death was quantified using a cell death detection ELISA kit (Roche) according to the manufacturer's instructions.

[6] = test system: differentiated PC12 cells; experiment: Apoptotic cell death in differentiated PC12 cells after NGF withdrawal (cell death ELISA / TUNEL); type: cell-based
Protocol: as §1

B1: Sp35-Fc: extra-cellular portion of human Sp35 (residues 1-532) fused to the hinge and Fc region of human IgG1 (protein)
chain: TGCPPRCECSAQDRAVLCHRKRFVAVPEGIPTETRLLDLGKNRIKTLNQDEFASFPHLEELELNENIVSAVEPGAFNNLFNLRTLGLRSNRLKLIPLGVFTGLSNLTKLDISENKIVILLDYMFQDLYNLKSLEVGDNDLVYISHRAFSGLNSLEQLTLEKCNLTSIPTEALSHLHGLIVLRLRHLNINAIRDYSFKRLYRLKVLEISHWPYLDTMTPNCLYGLNLTSLSITHCNLTAVPYLAVRHLVYLRFLNLSYNPISTIEGSMLHELLRLQEIQLVGGQLAVVEPYAFRGLNYLRVLNVSGNQLTTLEESVFHSVGNLETLILDSNPLACDCRLLWVFRRRWRLNFNRQQPTCATPEFVQGKEFKDFPDVLLPNYFTCRRARIRDRKAQQVFVDEGHTVQFVCRADGDPPPAILWLSPRKHLVSAKSNGRLTVFPDGTLEVRYAQVQDNGTYLCIAANAGGNDSMPAHLHVRSYSPDWPHQPNKTFAFISNQPGE
modifications: left off: a dimerising Fc or GST
notes: extra-cellular portion of human Sp35 (residues 1-532) fused to the hinge and Fc region of human IgG1
differentiation of A2B5+ cells into O4+ cells [1]: promoted differentiation of A2B5^+ cells into O4^+ cells in a concentration dependent manner | differentiation of A2B5+ cells into O4+ cells ([1]; listed as LINGO-1-Fc): Dose-dependent differentiation | axon myelination by IHC (anti-MBP antibody or luxol fast blue) [2]: increased | mature oligodendrocyte survival (CC1 antibody staining) ([2]; FIG. 12): increased mature oligodendrocyte survival | increase in MBP protein expression (cell staining and Western blot) ([3]; compared to control-Fc treated cells): approximately 3 fold | survival rate for mature oligodendrocytes (cell viability staining) ([3]; versus control-Fc): significantly increased survival rate | RhoA-GTP amount versus control [4]: threefold reduction | Caspase-3 activation ([5]; 0.1 μM, 18 hours after removal of NGF): reduced Caspase-3 activation | dose dependence of effect on Caspase-3 activation ([5]; 0.1-10 μM, 18 hours after NGF withdrawal): dose-dependent | effect on Caspase-3 activation compared with zVAD (0.1 μM) ([5]; 1 or 10 μM, FIG. 14): as effective as a neuroprotective dose of the caspase inhibitor zVAD | cells undergoing apoptosis (TUNEL assay) ([6]; 18 hours after NGF withdrawal, FIG. 13 legend): fewer cells undergoing apoptosis | cell death (TUNEL ELISA) ([6]; 42 hours after withdrawal of NGF, FIG. 13): significantly reduced cell death

Source: patent publication US8486893B2, “Treatment of conditions involving demyelination” (Biogen Idec MA Inc., priority 2004, dated 2013)
